Assays:
His-tagged CKB3 = biological target: T1, His-tagged CKB3
T1 chain: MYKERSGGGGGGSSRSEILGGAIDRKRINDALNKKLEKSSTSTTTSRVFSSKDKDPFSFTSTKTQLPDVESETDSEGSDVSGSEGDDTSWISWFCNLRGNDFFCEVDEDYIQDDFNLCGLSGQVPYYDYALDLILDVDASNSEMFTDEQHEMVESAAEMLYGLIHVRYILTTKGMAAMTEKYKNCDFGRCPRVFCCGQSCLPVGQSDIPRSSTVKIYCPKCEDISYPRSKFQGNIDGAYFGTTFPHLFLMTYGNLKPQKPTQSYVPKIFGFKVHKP

[1] = biological target: glutathione-S-transferase (GST) [GST: P08515]
His-tagged CKB1, P40228 = biological target: T2, His-tagged CKB1, P40228
T2 chain: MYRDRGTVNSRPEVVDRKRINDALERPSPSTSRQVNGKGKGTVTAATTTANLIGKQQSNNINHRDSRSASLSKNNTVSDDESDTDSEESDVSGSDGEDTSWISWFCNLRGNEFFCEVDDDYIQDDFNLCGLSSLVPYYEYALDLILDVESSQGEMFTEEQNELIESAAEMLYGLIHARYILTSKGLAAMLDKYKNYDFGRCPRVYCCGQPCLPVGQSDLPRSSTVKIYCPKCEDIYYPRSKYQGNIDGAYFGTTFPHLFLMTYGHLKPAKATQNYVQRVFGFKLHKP

GST-LHY, Q6R0H1 = biological target: T3, GST-LHY, Q6R0H1
T3 chain: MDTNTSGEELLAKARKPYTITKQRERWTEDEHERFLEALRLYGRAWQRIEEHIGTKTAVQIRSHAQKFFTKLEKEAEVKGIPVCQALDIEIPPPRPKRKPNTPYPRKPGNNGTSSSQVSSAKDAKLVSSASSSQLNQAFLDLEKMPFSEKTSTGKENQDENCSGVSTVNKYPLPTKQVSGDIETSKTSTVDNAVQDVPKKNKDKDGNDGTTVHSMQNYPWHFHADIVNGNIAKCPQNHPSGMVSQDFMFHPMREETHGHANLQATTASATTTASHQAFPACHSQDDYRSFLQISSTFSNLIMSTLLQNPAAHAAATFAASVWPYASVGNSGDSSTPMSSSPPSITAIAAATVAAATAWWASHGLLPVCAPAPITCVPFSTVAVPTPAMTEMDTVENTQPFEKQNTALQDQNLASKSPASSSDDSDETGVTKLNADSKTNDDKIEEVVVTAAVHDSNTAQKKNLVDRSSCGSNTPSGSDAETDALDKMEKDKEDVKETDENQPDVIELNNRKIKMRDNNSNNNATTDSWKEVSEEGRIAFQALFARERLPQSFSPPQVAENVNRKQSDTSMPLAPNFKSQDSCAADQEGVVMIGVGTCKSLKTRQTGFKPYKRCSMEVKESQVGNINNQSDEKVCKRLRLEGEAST

Chain of GST-CCA1, P92973 (P92973 whole entry): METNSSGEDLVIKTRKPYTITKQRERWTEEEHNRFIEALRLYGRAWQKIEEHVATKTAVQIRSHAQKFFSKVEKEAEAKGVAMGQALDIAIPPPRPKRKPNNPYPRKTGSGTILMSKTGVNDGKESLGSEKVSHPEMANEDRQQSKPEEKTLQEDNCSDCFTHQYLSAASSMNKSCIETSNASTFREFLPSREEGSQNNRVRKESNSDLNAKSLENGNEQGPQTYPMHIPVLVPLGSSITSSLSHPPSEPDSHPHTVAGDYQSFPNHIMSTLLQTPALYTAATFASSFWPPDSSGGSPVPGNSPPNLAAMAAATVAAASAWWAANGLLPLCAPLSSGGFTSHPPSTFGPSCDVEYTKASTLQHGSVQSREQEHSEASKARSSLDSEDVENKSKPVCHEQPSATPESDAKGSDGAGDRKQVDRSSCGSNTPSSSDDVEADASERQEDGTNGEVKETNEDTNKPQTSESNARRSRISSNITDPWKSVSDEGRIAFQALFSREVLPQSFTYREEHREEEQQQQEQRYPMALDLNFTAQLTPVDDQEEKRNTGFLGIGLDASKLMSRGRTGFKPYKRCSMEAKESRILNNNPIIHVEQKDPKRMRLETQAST
Chain of glutathione-S-transferase (GST) [GST: P08515] (P08515 whole entry): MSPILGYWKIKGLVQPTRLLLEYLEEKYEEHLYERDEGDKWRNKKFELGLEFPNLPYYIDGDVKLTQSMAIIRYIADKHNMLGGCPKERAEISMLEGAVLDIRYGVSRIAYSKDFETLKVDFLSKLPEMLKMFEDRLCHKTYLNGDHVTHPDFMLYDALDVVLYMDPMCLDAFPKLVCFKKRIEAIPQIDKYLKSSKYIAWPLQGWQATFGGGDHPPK

B1: CKA1 (α-subunit of Arabidopsis protein kinase CK2) (protein)
chain: MSKARVYTEVNVIRPKDYWDYESLIVQWGEQDDYEVVRKVGRGKYSEVFEGINVNSKEKCIIKILKPVKKKKIRREIKILQNLCGGPNIVKLLDVVRDQHSKTPSLIFEYVNSTDFKVLYPTLTDYDIRYYIYELLKALDFCHSQGIMHRDVKPHNVMIDHELRKLRLIDWGLAEFYHPGKEYNVRVASRYFKGPELLVDLQDYDYSLDMWSLGCMFAGMIFRKEPFFYGHDNQDQLVKIAKVLGTDELNAYLNKYQLELDPQLEALVGRHSRKPWSKFINADNQHLVSPEAIDFLDKLLRYDHQDRLTAKEAMAHAYFAQVRAAETSRMRSQ
For B1, the “phosphorylation of GST-CCA1 by 14 ng of CKA1 with 35 ng of β-subunit” value (His-tagged CKB3) was “a strong stimulation of the CCA1 phosphorylation was observed by adding either CKB1 or CKB3”, the “phosphorylation of GST-LHY by CKA1 with added β-subunit” value (His-tagged CKB3) was “this phosphorylation was enhanced by adding either CKB1 or CKB3” and the “in vitro phosphorylation with [γ-32P]ATP, SDS-PAGE autoradiography” value (from here on “in vitro phosphorylation with [γ-32P]ATP”) [1] was “a large amount of CKA1 (280 ng) phosphorylates GST-CCA1 but not GST”. The “in vitro phosphorylation with [γ-32P]ATP” value (GST-CCA1, P92973) was “a large amount of CKA1 (280 ng) phosphorylates GST-CCA1 but not GST”, the “phosphorylation of GST-CCA1 by 14 ng of CKA1 with 35 ng of β-subunit” value (His-tagged CKB1, P40228) was “a strong stimulation of the CCA1 phosphorylation was observed by adding either CKB1 or CKB3” and the “phosphorylation of GST-LHY by CKA1 with added β-subunit” value (His-tagged CKB1, P40228) was “this phosphorylation was enhanced by adding either CKB1 or CKB3”. The “in vitro phosphorylation with [γ-32P]ATP” value (GST-LHY, Q6R0H1) was “CKA1, the α-subunit of CK2, could phosphorylate LHY”.
